{"source": "patent US20240209099A1", "about": "(SUZHOU TRANSCENTA THERAPEUTICS, published 2024)", "key": {"[1]": {"target": "T1, Recombinant Human VEGFR2/KDR Protein, His tag (hVEGFR2-his) (human, UniProt P35968 20-764)", "T1 construct": "Expressed in HEK293, bought from ACRO Biosystems; also called human VEGFR2-his; Human VEGFR2/KDR-His", "assay": "competition ELISA: VEGF-A coated (0.25 ug/ml), antibody mixed with VEGFR2, detection with mouse anti-VEGFR2 serum and anti-mouse Fc-HRP; blocked ligand VEGF-A", "method": "For this assay, 0.25 μg/ml VEGF-A was coated on ELISA plate before a mixture of chimeric antibodies and VEGFR2 were added. To detect free VEGF-A (not bind to VEGFR2), 1:1000 diluted mouse serum (mouse previous immunized with human VEGFR2) were added and HRP conjugated goat anti-mouse Fc antibody was used as secondary antibody."}, "[2]": {"target": "T2, Recombinant Rhesus macaque VEGFR2/KDR Protein, His tag (rhesus macaque)", "T2 construct": "Expressed in HEK293, bought from ACRO Biosystems; also called rhesus VEGFR2-his; rhesus VEGFR2", "T2 chain": "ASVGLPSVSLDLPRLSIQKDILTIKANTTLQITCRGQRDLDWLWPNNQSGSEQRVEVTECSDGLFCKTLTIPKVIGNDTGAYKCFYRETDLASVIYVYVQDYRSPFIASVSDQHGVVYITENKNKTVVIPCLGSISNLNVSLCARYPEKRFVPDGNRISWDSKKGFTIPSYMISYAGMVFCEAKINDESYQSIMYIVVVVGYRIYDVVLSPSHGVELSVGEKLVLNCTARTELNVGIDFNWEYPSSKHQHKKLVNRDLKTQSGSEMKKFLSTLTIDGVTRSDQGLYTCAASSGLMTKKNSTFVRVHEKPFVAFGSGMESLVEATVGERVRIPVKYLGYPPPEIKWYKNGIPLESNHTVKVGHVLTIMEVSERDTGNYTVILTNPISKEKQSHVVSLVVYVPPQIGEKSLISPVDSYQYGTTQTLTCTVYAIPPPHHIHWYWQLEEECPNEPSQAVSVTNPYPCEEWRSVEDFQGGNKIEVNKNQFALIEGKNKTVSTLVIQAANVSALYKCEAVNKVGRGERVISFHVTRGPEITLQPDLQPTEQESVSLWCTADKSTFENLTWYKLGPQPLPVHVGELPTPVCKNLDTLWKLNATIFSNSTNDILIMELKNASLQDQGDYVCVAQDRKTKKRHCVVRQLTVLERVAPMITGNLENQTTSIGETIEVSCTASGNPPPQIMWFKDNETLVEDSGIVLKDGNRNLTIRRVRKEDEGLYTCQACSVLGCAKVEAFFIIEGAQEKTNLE", "assay": "ELISA, rhesus VEGFR2-his coated, anti-human Fc-HRP", "method": "(§1) Same protocol of Example 2 antibody screening by ELISA assay. Briefly, 0.5 μg/ml hVEGFR2-his was coated and serially diluted purified antibodies would bind to coated antigen. Using HRP conjugated goat anti-mouse Fc antibody could detect binding signals of each antibody.\n(§2) Same protocol of Example 4 except using HRP conjugated goat anti-human Fc antibody as secondary antibody. Binding to hVEGFR2-his and rhesus VEGFR2-his (Acrobiosystems, Cat #VE2-C52H3) were also analyzed head-to-head."}, "[3]": {"target": "T3, human VEGFR2 on HUVEC cells (human, UniProt P35968 20-1356)", "T3 construct": "also called hVEGFR2 on HUVEC", "assay": "flow cytometry on HUVEC cells, percent shifted cells (Shift %), anti-human IgG-PE"}, "[4]": {"target": "T1, Recombinant Human VEGFR2/KDR Protein, …", "assay": "ELISA, hVEGFR2-his coated (0.5 ug/ml), anti-human Fc-HRP", "method": "as §1, §2"}, "[5]": {"target": "T1, Recombinant Human VEGFR2/KDR Protein, …", "assay": "ELISA, hVEGFR2-his coated, anti-human Fc-HRP", "method": "as §2\nSame protocol of Example 9."}, "[6]": {"target": "T1, Recombinant Human VEGFR2/KDR Protein, …", "assay": "SPR (Biacore), antibody captured by anti-Fc, antigen 2.5-80 nM", "method": "A CM5 sensor chip was activated in each flow cell by 7-min injection (10 μl/min) of freshly prepared 1:1 50 mM N-hydroxysuccinimide (NHS): 200 mM 1-ethyl-3-(3-dimethylaminopropyl)-carbodiimide (EDC). Then anti-human Fc antibody (GE Healthcare) in a concentration of 10 μg/ml in 10 mM sodium acetate buffer PH 5.0 was injected onto the activated chip at 10 μl/min (HBS-EP running buffer: 10 mM HEPES, 150 mM NaCl, 3.4 mM EDTA, 0.005% surfactant P20, pH 7.4). The remaining active coupling sites were blocked by 7 min injection of 1M ethanolamine at 10 μl/min. The immobilization level of each flow cell is ˜9000RU. Antibodies were captured in FC2 by anti-human Fc IgG or anti-mouse Fc (GE Healthcare) to 200˜300RU. FC1 was used as the reference cell. Antigen was injected at varying concentrations (2.5 nM, 5 nM, 10 nM, 20 nM, 40 nM and 80 nM) after capture of antibody. The association time for antibody binding antigen is 180s. Surface Regeneration condition is 120s at 10 μl/min in Gly pH1.5. The signals with captured antibody subtracted from those without captured antibody were calculated with Biacore X100 evaluation software ver. 2.0 (Biacore)."}}}
{"binder": "002C (chimeric 002) (antibody, V domains shown, Mouse variable regions cloned into expression vector pCP-Hck/Hcg1 (human constant regions; detected with anti-human Fc)) VH: QVQLQQSGPELVKPGASVKISCKASGYAFSSSWMNWVKQRPGEGLEWIGRIFPGDGDTYYNGKFQVKATLTADKSSSTAYMQLSSLTSEDSAVYFCAIFLDTSGRYVDYWGQGTTLTISS VL: DIVMTQSHKFMSTSVGDRVSITCKASQDVNTAVAWYQQKPGQSPKLLIYSASYRYIGVPDRFTGSGSGTDFTFTISSVQSEDLTVYYCQQHYRAPLTFGSGTKLELK", "values": [{"measurement": "IC50", "setting": "[1]", "value": 2.11, "unit": "µg/mL"}, {"measurement": "EC50", "setting": "[2]", "value": 0.0209, "unit": "µg/mL"}, {"measurement": "EC50", "setting": "[3]", "value": 0.0823, "unit": "µg/mL"}, {"measurement": "EC50", "setting": "[4]", "value": 0.0308, "unit": "µg/mL"}]}
{"binder": "042C (chimeric 042) (antibody, V domains shown, Chimeric antibody with human constant regions (vector pCP-Hck/Hcg1)) VH: EVQLVESGGDLVKPGGSLKLSCTASGFSFSIYGMSWVRQTPDKRLEWVASISVGGSYTYYADSVEGRFTISRENAKNTLYLQMNSLKSEDTALYYCARELDGNYDYWGQGTSLTVSS VL: DIVITQNELSNPVTFGESVSISCRSSKSLLYKDGKTYLNWFLQRPGQSPQLLIYLMSTRASGVSDRFSGSGSGTDFTLEISRVKAEDVGVYYCQQLVEYPFTFGSGTKLEIK", "values": [{"measurement": "IC50", "setting": "[1]", "value": 0.148, "unit": "µg/mL"}, {"measurement": "EC50", "setting": "[2]", "value": 0.0299, "unit": "µg/mL"}, {"measurement": "EC50", "setting": "[3]", "value": 0.157, "unit": "µg/mL"}, {"measurement": "EC50", "setting": "[4]", "value": 0.015, "unit": "µg/mL"}]}
{"binder": "048C (chimeric 048) (antibody, V domains shown, Chimeric antibody with human constant regions (vector pCP-Hck/Hcg1)) VH: EVQLVESGGDLVKPGGSLKLSCAASGFTFSMYGMSWVRQTPDKRLEWVASISIGGSYTYYADSVEGRFTISRENAKNTLFLQMNSLKSEDTALYYCAREMDGNYDYWGHGTTLTVSS VL: DVMITQDELSNPVTFGESVSISCRSSKSLLYKDGKTYLNWFLQRPGQSPQLLIYLMSTRASGVSDRFSGSGSGTDFTLEISRVKAEDVGIYYCQQLVEYPFTFGSGTKLEIK", "values": [{"measurement": "IC50", "setting": "[1]", "value": 0.09, "unit": "µg/mL"}, {"measurement": "EC50", "setting": "[5]", "value": 0.00574, "unit": "µg/mL"}, {"measurement": "EC50", "setting": "[2]", "value": 0.0101, "unit": "µg/mL"}, {"measurement": "EC50", "setting": "[4]", "value": 0.0053, "unit": "µg/mL"}]}
{"binder": "054C (chimeric 054) (antibody, V domains shown, Chimeric antibody with human constant regions (vector pCP-Hck/Hcg1)) VH: EVQLVESGGDLVKPGGSLKLSCAASGFTFSMYGMSWVRQTPDKRLEWVASISIGGSYTYYADSVEGRFIISRENAKNTLFLQMNSLKSEDTALYYCARELDGNYDYWGQGTTLTVSS VL: HIMITQDELSNPVTFGESVSISCRSSKSLLYKDGKTYLNWFLQRPGQSPQLLIYLMSTRASGVSDRFSGSGSGTDFTLEISRVKAEDVGIYYCQQLVEYPFTFGSGTKLEIK", "values": [{"measurement": "IC50", "setting": "[1]", "value": 0.1, "unit": "µg/mL"}, {"measurement": "Kd", "setting": "[6]", "value": 2.45, "unit": "nM"}, {"measurement": "koff", "setting": "[6]", "value": 0.000113, "unit": "s⁻¹"}, {"measurement": "kon", "setting": "[6]", "value": 46000, "unit": "M⁻¹ s⁻¹"}, {"measurement": "EC50", "setting": "[5]", "value": 0.0186, "unit": "µg/mL"}, {"measurement": "EC50", "setting": "[2]", "value": 0.0168, "unit": "µg/mL"}, {"measurement": "EC50", "setting": "[3]", "value": 0.0875, "unit": "µg/mL"}, {"measurement": "EC50", "setting": "[4]", "value": 0.0189, "unit": "µg/mL"}]}
